Measured values taken from publication PMC2661965.
Blank lines part the entries; values can stand above or below the molecule they belong to.

What was measured:
Assay in all cases: BiFC
V2-Trap-80 = V2-Trap-80 (UniProt Q8VCD5); conditions: HEK-293 cells, co-transfection; parent: est. 72; read off a plot
p65-V2 = p65-V2 (UniProt Q04207); conditions: HEK-293 cells, co-transfection; parent: est. 740; read off a plot
V2-Trap-80, Q8VCD5 = molecular target: T1, V2-Trap-80, Q8VCD5; conditions: chain shown with the change; HEK-293 cells, co-transfection; parent: est. 72; read off a plot
T1 chain: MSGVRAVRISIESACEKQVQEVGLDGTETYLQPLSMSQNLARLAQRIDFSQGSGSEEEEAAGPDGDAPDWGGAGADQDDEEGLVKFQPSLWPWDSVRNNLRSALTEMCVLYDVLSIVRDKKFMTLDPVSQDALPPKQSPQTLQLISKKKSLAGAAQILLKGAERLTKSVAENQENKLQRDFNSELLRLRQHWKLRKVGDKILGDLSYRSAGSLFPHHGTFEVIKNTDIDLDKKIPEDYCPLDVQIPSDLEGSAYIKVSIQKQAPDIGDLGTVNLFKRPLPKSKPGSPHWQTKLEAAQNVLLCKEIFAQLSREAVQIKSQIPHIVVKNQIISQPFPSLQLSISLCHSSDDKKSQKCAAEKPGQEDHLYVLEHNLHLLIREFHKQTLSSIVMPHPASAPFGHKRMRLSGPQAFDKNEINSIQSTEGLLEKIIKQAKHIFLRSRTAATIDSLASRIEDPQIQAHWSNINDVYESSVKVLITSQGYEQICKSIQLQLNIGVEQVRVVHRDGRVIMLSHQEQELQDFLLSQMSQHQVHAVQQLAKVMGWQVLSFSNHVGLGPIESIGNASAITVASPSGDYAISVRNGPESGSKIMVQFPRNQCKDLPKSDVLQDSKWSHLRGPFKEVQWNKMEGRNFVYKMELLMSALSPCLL

p65-V2, Q04207 = molecular target: T2, p65-V2, Q04207; conditions: chain shown with the change; HEK-293 cells, co-transfection; parent: est. 740; read off a plot
T2 chain: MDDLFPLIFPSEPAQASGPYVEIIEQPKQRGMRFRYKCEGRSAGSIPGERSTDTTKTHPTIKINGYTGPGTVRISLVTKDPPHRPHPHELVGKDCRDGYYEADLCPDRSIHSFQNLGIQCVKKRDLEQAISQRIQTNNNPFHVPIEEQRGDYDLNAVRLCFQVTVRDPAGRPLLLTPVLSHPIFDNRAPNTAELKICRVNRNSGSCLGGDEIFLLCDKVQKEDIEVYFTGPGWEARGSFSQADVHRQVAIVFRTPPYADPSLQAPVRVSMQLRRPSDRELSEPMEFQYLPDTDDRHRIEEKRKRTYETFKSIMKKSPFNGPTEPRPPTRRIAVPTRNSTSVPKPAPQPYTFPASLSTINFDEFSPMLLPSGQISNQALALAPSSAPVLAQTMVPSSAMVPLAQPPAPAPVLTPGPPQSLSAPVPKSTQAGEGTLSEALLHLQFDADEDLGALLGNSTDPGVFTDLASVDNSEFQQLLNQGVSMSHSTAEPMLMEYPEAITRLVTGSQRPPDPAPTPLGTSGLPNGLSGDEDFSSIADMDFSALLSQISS

response (V2-Trap-80): 40 % wt p65
response (p65-V2): 550 % wt p65
Molecule: p65ΔTA2 fused to Venus fragment 1 (from UniProt Q04207) TA1 mut528-534

response (V2-Trap-80): 38 % wt p65
response (p65-V2): 640 % wt p65
Molecule: p65ΔTA2 fused to Venus fragment 1 (from UniProt Q04207) TA1 mut535-541

response (V2-Trap-80, Q8VCD5): 35 % wt p65
response (p65-V2, Q04207): 600 % wt p65
B1: p65ΔTA2 fused to Venus fragment 1, Q04207 D539A; F540A (protein)
chain: MDDLFPLIFPSEPAQASGPYVEIIEQPKQRGMRFRYKCEGRSAGSIPGERSTDTTKTHPTIKINGYTGPGTVRISLVTKDPPHRPHPHELVGKDCRDGYYEADLCPDRSIHSFQNLGIQCVKKRDLEQAISQRIQTNNNPFHVPIEEQRGDYDLNAVRLCFQVTVRDPAGRPLLLTPVLSHPIFDNRAPNTAELKICRVNRNSGSCLGGDEIFLLCDKVQKEDIEVYFTGPGWEARGSFSQADVHRQVAIVFRTPPYADPSLQAPVRVSMQLRRPSDRELSEPMEFQYLPDTDDRHRIEEKRKRTYETFKSIMKKSPFNGPTEPRPPTRRIAVPTRNSTSVPKPAPQPYTFPASLSTINFDEFSPMLLPSGQISNQALALAPSSAPVLAQTMVPSSAMVPLAQPPAPAPVLTPGPPQSLSAPVPKSTQAGEGTLSEALLHQLLNQGVSMSHSTAEPMLMEYPEAITRLVTGSQRPPDPAPTPLGTSGLPNGLSGDEDFSSIADMAASALLSQISS
